Source: US20140087995A1 (published 2014)
Numbered stars: 1 amine (or outer) side, 2 acyl side, 3 side chain; on linkers, the order of the positions; unused ones are H or OH. Bridge positions count the residues as written; N and C are the ends. Side chains are listed from the residue outwards. Ends that are not written are not given here. * marks the point of attachment. C20 diacid = O=C(O)CCCCCCCCCCCCCCCCCCC(=O)*; C16 diacid = O=C(O)CCCCCCCCCCCCCCC(=O)*; γGlu = O=C(O)[C@H](CCC(=O)[*:2])N[*:1]; C14 diacid = O=C(O)CCCCCCCCCCCCC(=O)*; AEEA = NCCOCCOCC(=O)O

B1: N^ε1-[2-[2-[2-[[2-[2-[2-[[(4S)-4-carboxy-4-(19-carboxynonadecanoylamino)butanoyl]amino]ethoxy]ethoxy]acetyl]amino]ethoxy]ethoxy]acetyl]-[Arg17,Pro21,Pro27,Pro34 … (peptide)
peptide: K([AEEA-AEEA-γGlu-C20 diacid])CNTATCATQRLANFLRHSSPNFGAIPSSTNVGPNTY-NH2
modifications: disulfide 2-7; N-terminus assumed
SMILES: CC[C@H](C)[C@H](NC(=O)[C@H](C)NC(=O)CNC(=O)[C@H](Cc1ccccc1)NC(=O)[C@H](CC(N)=O)NC(=O)[C@@H]1CCCN1C(=O)[C@H](CO)NC(=O)[C@H](CO)NC(=O)[C@H](Cc1c[nH]cn1)NC(=O)[C@H](CCCNC(=N)N)NC(=O)[C@H](CC(C)C)NC(=O)[C@H](Cc1ccccc1)NC(=O)[C@H](CC(N)=O)NC(=O)[C@H](C)NC(=O)[C@H](CC(C)C)NC(=O)[C@H](CCCNC(=N)N)NC(=O)[C@H](CCC(N)=O)NC(=O)[C@@H](NC(=O)[C@H](C)NC(=O)[C@@H]1CSSC[C@H](NC(=O)[C@@H](N)CCCCNC(=O)COCCOCCNC(=O)COCCOCCNC(=O)CC[C@H](NC(=O)CCCCCCCCCCCCCCCCCCC(=O)O)C(=O)O)C(=O)N[C@@H](CC(N)=O)C(=O)N[C@@H]([C@@H](C)O)C(=O)N[C@@H](C)C(=O)N[C@@H]([C@@H](C)O)C(=O)N1)[C@@H](C)O)C(=O)N1CCC[C@H]1C(=O)N[C@@H](CO)C(=O)N[C@@H](CO)C(=O)N[C@H](C(=O)N[C@@H](CC(N)=O)C(=O)N[C@H](C(=O)NCC(=O)N1CCC[C@H]1C(=O)N[C@@H](CC(N)=O)C(=O)N[C@H](C(=O)N[C@@H](Cc1ccc(O)cc1)C(N)=O)[C@@H](C)O)C(C)C)[C@@H](C)O
notes: also called compound 98
B2: N^ε1-[2-[2-[2-[[(4S)-4-carboxy-4-(19-carboxynonadecanoylamino)butanoyl]amino]ethoxy]ethoxy]acetyl]-[Arg14,Arg17,Pro21,Pro27]-h-amylin (peptide)
peptide: K([AEEA-γGlu-C20 diacid])CNTATCATQRLARFLRHSSPNFGAIPSSTNVGSNTY-NH2
modifications: disulfide 2-7; N-terminus assumed
SMILES: CC[C@H](C)[C@H](NC(=O)[C@H](C)NC(=O)CNC(=O)[C@H](Cc1ccccc1)NC(=O)[C@H](CC(N)=O)NC(=O)[C@@H]1CCCN1C(=O)[C@H](CO)NC(=O)[C@H](CO)NC(=O)[C@H](Cc1c[nH]cn1)NC(=O)[C@H](CCCNC(=N)N)NC(=O)[C@H](CC(C)C)NC(=O)[C@H](Cc1ccccc1)NC(=O)[C@H](CCCNC(=N)N)NC(=O)[C@H](C)NC(=O)[C@H](CC(C)C)NC(=O)[C@H](CCCNC(=N)N)NC(=O)[C@H](CCC(N)=O)NC(=O)[C@@H](NC(=O)[C@H](C)NC(=O)[C@@H]1CSSC[C@H](NC(=O)[C@@H](N)CCCCNC(=O)COCCOCCNC(=O)CC[C@H](NC(=O)CCCCCCCCCCCCCCCCCCC(=O)O)C(=O)O)C(=O)N[C@@H](CC(N)=O)C(=O)N[C@@H]([C@@H](C)O)C(=O)N[C@@H](C)C(=O)N[C@@H]([C@@H](C)O)C(=O)N1)[C@@H](C)O)C(=O)N1CCC[C@H]1C(=O)N[C@@H](CO)C(=O)N[C@@H](CO)C(=O)N[C@H](C(=O)N[C@@H](CC(N)=O)C(=O)N[C@H](C(=O)NCC(=O)N[C@@H](CO)C(=O)N[C@@H](CC(N)=O)C(=O)N[C@H](C(=O)N[C@@H](Cc1ccc(O)cc1)C(N)=O)[C@@H](C)O)C(C)C)[C@@H](C)O
notes: also called compound 82
B3: N^ε1-[(4S)-4-carboxy-4-(13-carboxytridecanoylamino)butanoyl]-[Arg17,Pro21,Pro27,His34]-h-amylin (peptide)
peptide: K([γGlu-C14 diacid])CNTATCATQRLANFLRHSSPNFGAIPSSTNVGHNTY-NH2
modifications: disulfide 2-7; N-terminus assumed
SMILES: CC[C@H](C)[C@H](NC(=O)[C@H](C)NC(=O)CNC(=O)[C@H](Cc1ccccc1)NC(=O)[C@H](CC(N)=O)NC(=O)[C@@H]1CCCN1C(=O)[C@H](CO)NC(=O)[C@H](CO)NC(=O)[C@H](Cc1c[nH]cn1)NC(=O)[C@H](CCCNC(=N)N)NC(=O)[C@H](CC(C)C)NC(=O)[C@H](Cc1ccccc1)NC(=O)[C@H](CC(N)=O)NC(=O)[C@H](C)NC(=O)[C@H](CC(C)C)NC(=O)[C@H](CCCNC(=N)N)NC(=O)[C@H](CCC(N)=O)NC(=O)[C@@H](NC(=O)[C@H](C)NC(=O)[C@@H]1CSSC[C@H](NC(=O)[C@@H](N)CCCCNC(=O)CC[C@H](NC(=O)CCCCCCCCCCCCC(=O)O)C(=O)O)C(=O)N[C@@H](CC(N)=O)C(=O)N[C@@H]([C@@H](C)O)C(=O)N[C@@H](C)C(=O)N[C@@H]([C@@H](C)O)C(=O)N1)[C@@H](C)O)C(=O)N1CCC[C@H]1C(=O)N[C@@H](CO)C(=O)N[C@@H](CO)C(=O)N[C@H](C(=O)N[C@@H](CC(N)=O)C(=O)N[C@H](C(=O)NCC(=O)N[C@@H](Cc1c[nH]cn1)C(=O)N[C@@H](CC(N)=O)C(=O)N[C@H](C(=O)N[C@@H](Cc1ccc(O)cc1)C(N)=O)[C@@H](C)O)C(C)C)[C@@H](C)O
B4: N^ε1-[(4S)-4-carboxy-4-(15-carboxypentadecanoylamino)butanoyl]-[Arg17,Pro21,Pro27,His34]-h-amylin (peptide)
peptide: K([γGlu-C16 diacid])CNTATCATQRLANFLRHSSPNFGAIPSSTNVGHNTY-NH2
modifications: disulfide 2-7; N-terminus assumed
SMILES: CC[C@H](C)[C@H](NC(=O)[C@H](C)NC(=O)CNC(=O)[C@H](Cc1ccccc1)NC(=O)[C@H](CC(N)=O)NC(=O)[C@@H]1CCCN1C(=O)[C@H](CO)NC(=O)[C@H](CO)NC(=O)[C@H](Cc1c[nH]cn1)NC(=O)[C@H](CCCNC(=N)N)NC(=O)[C@H](CC(C)C)NC(=O)[C@H](Cc1ccccc1)NC(=O)[C@H](CC(N)=O)NC(=O)[C@H](C)NC(=O)[C@H](CC(C)C)NC(=O)[C@H](CCCNC(=N)N)NC(=O)[C@H](CCC(N)=O)NC(=O)[C@@H](NC(=O)[C@H](C)NC(=O)[C@@H]1CSSC[C@H](NC(=O)[C@@H](N)CCCCNC(=O)CC[C@H](NC(=O)CCCCCCCCCCCCCCC(=O)O)C(=O)O)C(=O)N[C@@H](CC(N)=O)C(=O)N[C@@H]([C@@H](C)O)C(=O)N[C@@H](C)C(=O)N[C@@H]([C@@H](C)O)C(=O)N1)[C@@H](C)O)C(=O)N1CCC[C@H]1C(=O)N[C@@H](CO)C(=O)N[C@@H](CO)C(=O)N[C@H](C(=O)N[C@@H](CC(N)=O)C(=O)N[C@H](C(=O)NCC(=O)N[C@@H](Cc1c[nH]cn1)C(=O)N[C@@H](CC(N)=O)C(=O)N[C@H](C(=O)N[C@@H](Cc1ccc(O)cc1)C(N)=O)[C@@H](C)O)C(C)C)[C@@H](C)O
B5: N^ε1-[2-[2-[2-[[(4S)-4-carboxy-4-(19-carboxynonadecanoylamino)butanoyl]amino]ethoxy]ethoxy]acetyl]-[His14,Arg17,Pro21,Pro27,His34]-h-amylin (peptide)
peptide: K([AEEA-γGlu-C20 diacid])CNTATCATQRLAHFLRHSSPNFGAIPSSTNVGHNTY-NH2
modifications: disulfide 2-7; N-terminus assumed
SMILES: CC[C@H](C)[C@H](NC(=O)[C@H](C)NC(=O)CNC(=O)[C@H](Cc1ccccc1)NC(=O)[C@H](CC(N)=O)NC(=O)[C@@H]1CCCN1C(=O)[C@H](CO)NC(=O)[C@H](CO)NC(=O)[C@H](Cc1c[nH]cn1)NC(=O)[C@H](CCCNC(=N)N)NC(=O)[C@H](CC(C)C)NC(=O)[C@H](Cc1ccccc1)NC(=O)[C@H](Cc1c[nH]cn1)NC(=O)[C@H](C)NC(=O)[C@H](CC(C)C)NC(=O)[C@H](CCCNC(=N)N)NC(=O)[C@H](CCC(N)=O)NC(=O)[C@@H](NC(=O)[C@H](C)NC(=O)[C@@H]1CSSC[C@H](NC(=O)[C@@H](N)CCCCNC(=O)COCCOCCNC(=O)CC[C@H](NC(=O)CCCCCCCCCCCCCCCCCCC(=O)O)C(=O)O)C(=O)N[C@@H](CC(N)=O)C(=O)N[C@@H]([C@@H](C)O)C(=O)N[C@@H](C)C(=O)N[C@@H]([C@@H](C)O)C(=O)N1)[C@@H](C)O)C(=O)N1CCC[C@H]1C(=O)N[C@@H](CO)C(=O)N[C@@H](CO)C(=O)N[C@H](C(=O)N[C@@H](CC(N)=O)C(=O)N[C@H](C(=O)NCC(=O)N[C@@H](Cc1c[nH]cn1)C(=O)N[C@@H](CC(N)=O)C(=O)N[C@H](C(=O)N[C@@H](Cc1ccc(O)cc1)C(N)=O)[C@@H](C)O)C(C)C)[C@@H](C)O
notes: also called compound 80
B6: N^ε1-[2-[2-[2-[[(4S)-4-carboxy-4-(19-carboxynonadecanoylamino)butanoyl]amino]ethoxy]ethoxy]acetyl]-[His14,Arg17,Pro21,Pro27,Arg34]-h-amylin (peptide)
peptide: K([AEEA-γGlu-C20 diacid])CNTATCATQRLAHFLRHSSPNFGAIPSSTNVGRNTY-NH2
modifications: disulfide 2-7; N-terminus assumed
SMILES: CC[C@H](C)[C@H](NC(=O)[C@H](C)NC(=O)CNC(=O)[C@H](Cc1ccccc1)NC(=O)[C@H](CC(N)=O)NC(=O)[C@@H]1CCCN1C(=O)[C@H](CO)NC(=O)[C@H](CO)NC(=O)[C@H](Cc1c[nH]cn1)NC(=O)[C@H](CCCNC(=N)N)NC(=O)[C@H](CC(C)C)NC(=O)[C@H](Cc1ccccc1)NC(=O)[C@H](Cc1c[nH]cn1)NC(=O)[C@H](C)NC(=O)[C@H](CC(C)C)NC(=O)[C@H](CCCNC(=N)N)NC(=O)[C@H](CCC(N)=O)NC(=O)[C@@H](NC(=O)[C@H](C)NC(=O)[C@@H]1CSSC[C@H](NC(=O)[C@@H](N)CCCCNC(=O)COCCOCCNC(=O)CC[C@H](NC(=O)CCCCCCCCCCCCCCCCCCC(=O)O)C(=O)O)C(=O)N[C@@H](CC(N)=O)C(=O)N[C@@H]([C@@H](C)O)C(=O)N[C@@H](C)C(=O)N[C@@H]([C@@H](C)O)C(=O)N1)[C@@H](C)O)C(=O)N1CCC[C@H]1C(=O)N[C@@H](CO)C(=O)N[C@@H](CO)C(=O)N[C@H](C(=O)N[C@@H](CC(N)=O)C(=O)N[C@H](C(=O)NCC(=O)N[C@@H](CCCNC(=N)N)C(=O)N[C@@H](CC(N)=O)C(=O)N[C@H](C(=O)N[C@@H](Cc1ccc(O)cc1)C(N)=O)[C@@H](C)O)C(C)C)[C@@H](C)O
notes: also called compound 84

These binders were tested against T1, human calcitonin receptor (human, UniProt P30988 25-474) (assay: cell-based or functional assay).
T1 sequence (looked up): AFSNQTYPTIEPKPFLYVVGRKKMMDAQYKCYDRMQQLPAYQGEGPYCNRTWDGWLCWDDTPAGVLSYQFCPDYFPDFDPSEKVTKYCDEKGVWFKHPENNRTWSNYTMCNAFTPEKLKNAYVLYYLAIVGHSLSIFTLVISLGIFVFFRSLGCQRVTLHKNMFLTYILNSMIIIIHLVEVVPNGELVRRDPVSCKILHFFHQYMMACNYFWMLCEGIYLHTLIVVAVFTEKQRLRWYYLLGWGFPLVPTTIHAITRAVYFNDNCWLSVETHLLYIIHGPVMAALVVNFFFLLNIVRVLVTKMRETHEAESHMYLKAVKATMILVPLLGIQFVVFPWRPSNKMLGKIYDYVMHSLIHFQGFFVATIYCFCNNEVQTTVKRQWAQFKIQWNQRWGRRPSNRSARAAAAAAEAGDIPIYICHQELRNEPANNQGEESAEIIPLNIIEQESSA

Binder | Ratio hCT/hAmylin funct. | hCTR funct. EC50 [nM]
B1 | 19.5 | 1.63
B2 | 59.2 | 12.7
B3 | 38.8 | 1.09
B4 | 65.1 | 2.21
B5 | 15.4 | 2.14
B6 | 32.5 | 5.49

Each binder was assayed against T2, human amylin 3(a) receptor (human calcitonin receptor co-expressed with RAMP-3) (human, UniProt P30988 25-474; O60896 24-148, limits assumed) (assay: cell-based or functional assay).
T2 sequence (looked up) 1: T1 sequence (looked up)
T2 sequence (looked up) 2: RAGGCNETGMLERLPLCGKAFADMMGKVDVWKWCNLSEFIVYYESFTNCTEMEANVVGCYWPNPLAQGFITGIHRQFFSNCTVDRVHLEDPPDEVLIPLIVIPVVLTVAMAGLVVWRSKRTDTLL

Binder | hAmylin-R funct. EC50 [nM]
B1 | 0.084
B2 | 0.215
B3 | 0.028
B4 | 0.034
B5 | 0.139
B6 | 0.169
